Measurements: PMC7647119

Molecular target: T1, MADS29-His (Oryza sativa) (UniProt Q6H711)
T1 sequence: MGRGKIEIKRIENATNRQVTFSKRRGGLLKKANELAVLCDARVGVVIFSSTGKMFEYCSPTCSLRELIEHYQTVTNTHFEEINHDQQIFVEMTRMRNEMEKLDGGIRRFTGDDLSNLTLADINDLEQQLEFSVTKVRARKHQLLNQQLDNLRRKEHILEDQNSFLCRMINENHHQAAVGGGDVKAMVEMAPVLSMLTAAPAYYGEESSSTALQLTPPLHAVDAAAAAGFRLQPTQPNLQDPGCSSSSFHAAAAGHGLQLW
Assay: EMSA
Conditions: LightShift Chemiluminescent EMSA Kit per manufacturer; buffer, salt, pH and temperature not stated

Sequence	binding
ATTTTGCTCATTTGGTATAGATCTTTCTTACATATATAAGACTGATCTCTATAGTGGTGA (double strand) [POsAsp1 -1412 CArG probe]	binds
TCTATAGACTAGTCAGCATTTTTTTTAGCTCCATATTTGGATTTGTCAACTTCAGAAAAG (double strand) [POsAsp1 -770 CArG probe]	binds
